Positions of bridges follow the written chain, without caps; N, C: chain ends. Non-standard residues stand in square brackets, D forms with d. Cit = NC(=O)NCCC[C@H](N)C(=O)O; Api = NC1(C(=O)O)CCNCC1; Aib = CC(C)(N)C(=O)O
What was measured:
[1] = biological target: T1, human melanocortin 4 receptor (human, UniProt P32245 1-332); experiment: competition with 125-NDP-α-MSH, BHK human MC4R membranes
T1 construct: whole, on cells; cAMP assay on whole BHK cells; also called MC4R; human MC4 receptor
Method in brief: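 Competition binding used membranes from BHK cells stably expressing human MC4R with ¹²⁵I-NDP-α-MSH (apx. […] final), compound at 1 μM–0.001 nM. Incubation was 2 h at 25 °C in HEPES pH 7.0 buffer with CaCl₂, MgSO₄, EGTA, Tween 20 and 0.1% HSA or ovalbumin. Filter-bound radioactivity was fitted by non-linear regression.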

[2] = biological target: T1, human melanocortin 4 receptor; experiment: cell-based or functional assay
[3] = biological target: human melanocortin 1 receptor (human, UniProt Q01726 1-317); experiment: cell-based or functional assay
Chain of human melanocortin 1 receptor (Q01726 whole entry): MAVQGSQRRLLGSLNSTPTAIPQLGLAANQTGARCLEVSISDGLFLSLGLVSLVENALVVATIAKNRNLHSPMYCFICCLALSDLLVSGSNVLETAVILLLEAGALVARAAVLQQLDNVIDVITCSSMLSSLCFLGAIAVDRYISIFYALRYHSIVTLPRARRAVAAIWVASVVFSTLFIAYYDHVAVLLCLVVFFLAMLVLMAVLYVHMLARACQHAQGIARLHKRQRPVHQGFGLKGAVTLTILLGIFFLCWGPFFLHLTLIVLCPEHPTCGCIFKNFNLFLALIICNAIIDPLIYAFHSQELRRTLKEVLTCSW

T1 sequence (P32245 whole entry): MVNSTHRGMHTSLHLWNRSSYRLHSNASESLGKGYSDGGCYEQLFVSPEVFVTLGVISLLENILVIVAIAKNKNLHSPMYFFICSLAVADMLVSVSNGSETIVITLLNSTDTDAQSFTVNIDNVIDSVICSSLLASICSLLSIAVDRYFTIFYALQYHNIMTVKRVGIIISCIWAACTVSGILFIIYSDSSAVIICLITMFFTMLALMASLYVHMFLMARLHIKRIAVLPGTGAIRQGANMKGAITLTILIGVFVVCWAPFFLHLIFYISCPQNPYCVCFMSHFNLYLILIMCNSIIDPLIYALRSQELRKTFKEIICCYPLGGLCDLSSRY

Binder	Ki [1] [nM]	MC4R cAMP EC50 [2] [nM]	MC1R cAMP EC50 [3] [nM]
cyclo(CAH[dF][Cit]WCAEEEW) (disulfide 1-7; SMILES C[C@@H]1NC(=O)[C@@H]2CSSC[C@H](NC(=O)[C@H](Cc3c[nH]c4ccccc34)NC(=O)[C@H](CCCNC(N)=O)NC(=O)[C@@H](Cc3ccccc3)NC(=O)[C@H](Cc3c[nH]cn3)NC1=O)C(=O)N[C@@H](C)C(=O)N[C@@H](CCC(=O)O)C(=O)N[C@@H](CCC(=O)O)C(=O)N[C@@H](CCC(=O)O)C(=O)N[C@@H](Cc1c[nH]c3ccccc13)C(=O)N2, also called c[c[Cys-Ala-His-D-Phe-Cit-Trp-Cys]-Ala-Glu-Glu-Glu-Trp]) [Chem. 45]	1000	45.7	> 100
cyclo(C[Api]H[dF]RWC[Api]H[dF]RW) (disulfide 1-7; SMILES N=C(N)NCCC[C@@H]1NC(=O)[C@@H](Cc2ccccc2)NC(=O)[C@H](Cc2c[nH]cn2)NC(=O)C2(CCNCC2)NC(=O)[C@@H]2CSSC[C@H](NC(=O)[C@H](Cc3c[nH]c4ccccc34)NC1=O)C(=O)NC1(CCNCC1)C(=O)N[C@@H](Cc1c[nH]cn1)C(=O)N[C@H](Cc1ccccc1)C(=O)N[C@@H](CCCNC(=N)N)C(=O)N[C@@H](Cc1c[nH]c3ccccc13)C(=O)N2, also called c[c[Cys-ACP-His-D-Phe-Arg-Trp-Cys]-ACP-His-D-Phe-Arg-Trp]) [Chem. 47]	0.72	0.12	2.79
CAHFXWCAHFXW (D-Phe 4, 10; AGP 5, 11; disulphide Cys1-Cys7; head-to-tail amide Cys1-Trp12, also called c[c[Cys-Ala-His-D-Phe-AGP-Trp-Cys]-Ala-His-D-Phe-AGP-Trp]) [Chem. 42]	10000	> 1000	> 100
cyclo(C[Aib]H[dF]KWC[Aib]H[dF]KW) (disulfide 1-7; SMILES CC1(C)NC(=O)[C@@H]2CSSC[C@H](NC(=O)[C@H](Cc3c[nH]c4ccccc34)NC(=O)[C@H](CCCCN)NC(=O)[C@@H](Cc3ccccc3)NC(=O)[C@H](Cc3c[nH]cn3)NC1=O)C(=O)NC(C)(C)C(=O)N[C@@H](Cc1c[nH]cn1)C(=O)N[C@H](Cc1ccccc1)C(=O)N[C@@H](CCCCN)C(=O)N[C@@H](Cc1c[nH]c3ccccc13)C(=O)N2, also called c[c[Cys-Aib-His-D-Phe-Lys-Trp-Cys]-Aib-His-D-Phe-Lys-Trp]) [Chem. 40]	0.31	0.29	11.1
cyclo(CH[dF]RWCH[dF]RW) (disulfide 1-6; SMILES N=C(N)NCCC[C@@H]1NC(=O)[C@@H](Cc2ccccc2)NC(=O)[C@H](Cc2c[nH]cn2)NC(=O)[C@@H]2CSSC[C@H](NC(=O)[C@H](Cc3c[nH]c4ccccc34)NC1=O)C(=O)N[C@@H](Cc1c[nH]cn1)C(=O)N[C@H](Cc1ccccc1)C(=O)N[C@@H](CCCNC(=N)N)C(=O)N[C@@H](Cc1c[nH]c3ccccc13)C(=O)N2, also called c[c[Cys-His-D-Phe-Arg-Trp-Cys]-His-D-Phe-Arg-Trp]) [Chem. 49]	3.92	1.28	> 5.5
cyclo(CAH[dF][Cit]WCAKKKW) (disulfide 1-7; SMILES C[C@@H]1NC(=O)[C@@H]2CSSC[C@H](NC(=O)[C@H](Cc3c[nH]c4ccccc34)NC(=O)[C@H](CCCNC(N)=O)NC(=O)[C@@H](Cc3ccccc3)NC(=O)[C@H](Cc3c[nH]cn3)NC1=O)C(=O)N[C@@H](C)C(=O)N[C@@H](CCCCN)C(=O)N[C@@H](CCCCN)C(=O)N[C@@H](CCCCN)C(=O)N[C@@H](Cc1c[nH]c3ccccc13)C(=O)N2, also called c[c[Cys-Ala-His-D-Phe-Cit-Trp-Cys]-Ala-Lys-Lys-Lys-Trp]) [Chem. 48]	0.15	0.06	9.14
